We go through one molecule from patent publication US11702469B2, “Recombinant EGFL7, EGFL7 antibodies, and uses thereof” (Ohio State Innovation Foundation, priority 2017, dated 2023).

In data set [1] the test system is wild type (C57Bl/6J) mice. The experiment in a line: Toxicity on normal hematopoiesis in wild type mice. The note with it: 50 mpk twice a week for two weeks. Format: in vivo. The protocol: FIG. 20A-20B. WT mice were treated with 50 mpk twice weekly of Parsatuzumab (@EGFL7) or IgG1 control. FIG. 20A. CBCs from mice harvested after treatment. FIG. 20B. Percent engraftment of treated BM (CD45.2+) transplanted into BoyJ recipient mice (CD45.1).
To assess the toxicity of Parsatuzumab on normal hematopoiesis, wild type (C57Bl/6J) mice were treated with Parsatuzumab (n=4) and IgG1 control (n=4) with the highest dose previously tested at 50 mpk twice a week for two weeks. Parsatuzumab targets both human and mouse EGFL7 protein. After two weeks of treatment, blood, spleen and BM were harvested and full phenotypic characterization was performed to assess toxicity. […] Full immunophenotypic examination of BM populations was also performed (data not shown due to space constraints). […] To functionally test the effect of Parsatuzumab on normal HSPCs, competitive repopulation BM transplantation (BMT) assays and CFU assays were performed. For competitive BMT, 2×10^6 WBM was harvested from Parsatuzumab and IgG1 treated mice (CD45.2) with 2×10^6 BoyJ (CD45.1) WBM and transplanted into lethally irradiated BoyJ recipients.

Another data set has as its system HES-1. Put plainly: HES-1 / HES1 RT-PCR in primary AML blasts. Format: cell-based, human. The protocol:
FIG. 15A-15D. EGFL7 binds and antagonizes NOTCH2 signaling. FIG. 15A. Co-IPs in Kasumi-1 cells using anti-EGFL7 antibody or normal rabbit IgG in Protein G Plus/Protein A agarose beads. Eluate was analyzed by immunoblotting for NOTCH1,-3, and EGFL7. FIG. 15B. Co-IPs with rabbit anti NOTCH1-3 antibody or normal rabbit IgG in Protein G Plus/Protein A agarose beads. FIG. 15C. Immunoblot for cleaved and total NOTCH2 in primary AML blasts stimulated in 0.25 μM rEGFL7. FIG. 15D. RT-PCR on primary AML blasts stimulated with 0.25 μM rEGFL7, *P<0.05.
FIG. 18A-18B. Parsatuzumab decreases blast growth and activation of NOTCH downstream signaling. FIG. 18A. […]
FIG. 23A-23E. […] (FIG. 23B) Total RNA was extracted for quantitative real time (qRT-PCR) analysis of HES1 mRNA with β-ACTIN as internal control. *p<0.05 vs un-stimulated control (Unstim). […] Total RNA was extracted for quantitative real time RT-PCR analysis of HES1 mRNA with β-ACTIN as internal control. *p<0.05, ***p<0.001 vs IgG.
Total RNA was extracted using Trizol reagent (Invitrogen, Carlsbad, Calif., USA). cDNA was synthesized using SuperScript III reagents (Invitrogen) according to the manufacturer's instruction. Quantitative Real-Time RT-PCR was performed using commercially available TaqMan Gene Expression Assay primers and the 7900HT Fast Real-Time PCR System (Applied Biosystems, Foster City, Calif., USA). […]

B1: Parsatuzumab: Anti-human EGFL7 therapeutic antibody (Parsatuzumab) obtained from Creative Biolabs; blocking monoclonal antibody (antibody, chains of the INN, looked up, V domains shown)
VH: EVQLVESGGGLVQPGGSLRLSCAASGYTFIDYYMNWVRQAPGKGLEWVGDINLDNSGTHYNQKFKGRFTISRDKSKNTAYLQMNSLRAEDTAVYYCAREGVYHDYDDYAMDYWGQGTLVTVSS
VL: DIQMTQSPSSLSASVGDRVTITCRTSQSLVHINAITYLHWYQQKPGKAPKLLIYRVSNRFSGVPSRFSGSGSGTDFTLTISSLQPEDFATYYCGQSTHVPLTFGQGTKVEIK
As to B1, in data set [1] (vs IgG1), the “number of CFUs and types of colonies from treated BM” value is given as “no significant changes in the number of CFUs or types of colonies formed”. For the same molecule, in data set [1] (vs IgG1 control), the “full differential complete blood counts (CBCs)” value is “No significant changes” and the “immunophenotypic examination of BM populations” value is given as “no significant changes in any hematopoietic stem and/or progenitor populations”. For the same molecule, the “expression of HES1” value with HES-1 (100 μg/ml, 2 and 10 hrs post treatment, vs IgG) is reported as “concomitant increases”. Moreover, the “HES-1 mRNA expression” value in the data set with HES-1 (4 and 24 hours after addition, vs IGg1 controls) is “significant increases in HES-1 expression”.
